Where a chain is given by its changes, count along the chain named. Names may count otherwise.
B1: BTR1 (SLC4A11), full-length human, wild type (natural protein, UniProt Q8NBS3-1 1-891, looked up)
chain: MSQVGGRGDRCTQEVQGLVHGAGDLSASLAENSPTMSQNGYFEDSSYYKCDTDDTFEAREEILGDEAFDTANSSIVSGESIRFFVNVNLEMQATNTENEATSGGCVLLHTSRKYLKLKNFKEEIRAHRDLDGFLAQASIVLNETATSLDNVLRTMLRRFARDPDNNEPNCNLDLLMAMLFTDAGAPMRGKVHLLSDTIQGVTATVTGVRYQQSWLCIICTMKALQKRHVCISRLVRPQNWGENSCEVRFVILVLAPPKMKSTKTAMEVARTFATMFSDIAFRQKLLETRTEEEFKEALVHQRQLLTMVSHGPVAPRTKERSTVSLPAHRHPEPPKCKDFVPFGKGIREDIARRFPLYPLDFTDGIIGKNKAVGKYITTTLFLYFACLLPTIAFGSLNDENTDGAIDVQKTIAGQSIGGLLYALFSGQPLVILLTTAPLALYIQVIRVICDDYDLDFNSFYAWTGLWNSFFLALYAFFNLSLVMSLFKRSTEEIIALFISITFVLDAVKGTVKIFWKYYYGHYLDDYHTKRTSSLVSLSGLGASLNASLHTALNASFLASPTELPSATHSGQATAVLSLLIMLGTLWLGYTLYQFKKSPYLHPCVREILSDCALPIAVLAFSLISSHGFREIEMSKFRYNPSESPFAMAQIQSLSLRAVSGAMGLGFLLSMLFFIEQNLVAALVNAPENRLVKGTAYHWDLLLLAIINTGLSLFGLPWIHAAYPHSPLHVRALALVEERVENGHIYDTIVNVKETRLTSLGASVLVGLSLLLLPVPLQWIPKPVLYGLFLYIALTSLDGNQLVQRVALLLKEQTAYPPTHYIRRVPQRKIHYFTGLQVLQLLLLCAFGMSSLPYMKMIFPLIMIAMIPIRYILLPRIIEAKYLDVMDAEHRP
notes: human BTR1 (SLC4A11), full length, residues 1-891 (NTD 1-307, TMD 336-891), amplified from human HEK293 cDNA; GFP and His tag removed with TEV protease before gel filtration; Residues 1-103, 308-335 and 888-891 were not built in the model; also called NaBC1; bicarbonate transporter-related protein-1; source: HEK293F cells, baculovirus (BacMam) infection, purified (Ni-NTA, TEV cleavage, gel …)
B2: BTR1 (SLC4A11) R125H, full-length human, pathogenic mutant (natural protein, UniProt Q8NBS3-1 1-891, looked up)
chain: B1 chain with R125H
notes: human BTR1 (SLC4A11), full length, with the disease-associated mutation R125H made in the PBM-SLC4A11 plasmid; GFP and His tag removed with TEV protease before gel filtration; also called BTR1-R125H; BTR1_(IF/R125H); source: HEK293F cells, baculovirus (BacMam) infection, purified (Ni-NTA, TEV cleavage, gel filtration) in GDN micelles; not shown: GFP, C-terminal, cleaved; His8, C-terminal, cleaved

Target: the molecule itself
Assay: cryo-EM structure; single-particle cryo-EM of protein purified in GDN micelles (150 mM NaCl, 20 mM HEPES pH 7.4); wild type apo or with NH4Cl (outward-facing), R125H mutant (inward-facing; pH not named for it)

Protein | stoichiometry N
B1 | 2
B2 | 2

From PMC10547724, “Structural insights into the conformational changes of BTR1/SLC4A11 in complex with PIP2” (Nature Communications, 2023)
